Patent US20220089765A1, “CD31 COMPETITORS AND USES THEREOF” (ENCEFA, priority 2019, published 2022)

Tests used:
[1] = tested on: midbrain dopaminergic (TH+) neurons; assay: MPP+ intoxication model in midbrain cell cultures, survival of DA (TH+) neurons; format: cell-based, Wistar rat
Method: For this purpose, spontaneously occurring DA cell death was prevented by a treatment combining depolarizing concentrations of K^+ (30 mM) and MK801 (5 μM), a glutamate receptor antagonist used to prevent unwanted excitotoxic insult. The cultures were then exposed to 3 μM MPP between 5 and 7 days in vitro (DIV) to achieve a loss of approximately 50% of DA neurons.
Animals were treated in accordance with the Guide for the Care and Use of Laboratory Animals (National Research Council, 1996), European Directive 86/609, and the guidelines of the local institutional animal care and use committee. Cultures were prepared from the ventral mesencephalon of gestational age 15.5 Wistar rat embryos (Janvier Breeding Center, Le Genest St Isle, France). Dissociated cells in suspension obtained by mechanical trituration of midbrain tissue pieces were seeded at a density of 1.2-1.5×10^5 cells/cm^2 onto tissue culture supports precoated with 1 mg/mL polyethylenimine diluted in borate buffer pH 8.3 as described (Michel et al., 1997. J Neurochem. 69(4):1499-507). The cultures were then maintained in N5 medium supplemented with 5 mM glucose, 5% horse serum, and 0.5% fetal calf serum, except for the first 3 DIV, when the concentration of fetal calf serum was 2.5% to favor initial maturation of the cultures (Guerreiro et al., 2008. Mol Pharmacol. 74(4):980-9). They were fed daily by replacing 70% of the medium. Routinely, mesencephalic cultures were established on Nunc 24-well culture plates (Thermofischer Scientific, Rochester, N.Y.). Note that these cultures contain tyrosine hydroxylase (TH)^+ neurons that were exclusively dopaminergic (Traver et al., 2006. Mol Pharmacol. 70(1):30-40). TH^+ neurons represented approximately 1-2% of the total number of neuronal cells present in these cultures. The evaluation of the survival of DA neurons was performed by counting cells immunopositive for TH as described (Toulorge et al., 2011. Faseb J. 25(8):2563-73).
Treatments with MPP were performed in cultures where the spontaneous death process was prevented by long-term exposure to depolarizing concentrations of K^+ (30 mM), in the presence of the glutamate receptor antagonist MK801 (5 μM) to prevent unwanted excitotoxic insults as described previously (Douhou et al., 2001. J Neurochem. 78(1): 163-74). Treatments with MPP and potential neuroprotective molecules were carried out between 5 and 7 DIV.
The cultures were fixed for 12 min using 4% formaldehyde in Dulbecco's phosphate-buffered saline (PBS), then washed twice with PBS before an incubation step at 4° C. for 24 h with the following antibodies. A monoclonal anti-TH antibody diluted 1/5000 (ImmunoStar, Inc., Hudson, Wis.) was used to assess the survival of DA neurons. Antibody was diluted in PBS containing 0.2% Triton X-100. Detection of the primary antibodies was performed with an Alexa Fluor-488 conjugate of an anti-mouse IgG antibody.

IL-10 = IL-10 levels in mice after intravenous injection (plasma ELISA); details: mouse
Method: To test whether the anti-inflammatory properties of agonistic anti-CD38 antibodies were also observe in vivo, we intravenously injected anti-CD38 antibody clone HB7 (15 mg/kg) to mice.
Blood samples collected in collection tube (Microvette® 500 EDTA-K3, […]) were centrifuged at 3000 rotations per minute during 15 minutes. Supernatants (plasma) were collected and transferred into tubes and froze at −80° C. for further analysis. IL-10 levels in plasma samples were assayed using an ELISA IL-10 kit (BioLegend®) according to the indications for use specified by the manufacturer.

B1: sCD31: soluble form of CD31; murine sCD31 with SEQ ID NO: 3 (protein)
chain: MLLALGLTLVLYASLQAEENSFTINSIHMESLPSWEVMNGQQLTLECLVDISTTSKSRSQHRVLFYKDDAMVYNVTSREHTESYVIPQARVFHSGKYKCTVMLNNKEKTTIEYEVKVHGVSKPKVTLDKKEVTEGGVVTVNCSLQEEKPPIFFKIEKLEVGTKFVKRRIDKTSNENFVLMEFPIEAQDHVLVFRCQAGILSGFKLQESEPIRSEYVTVQESFSTPKFEIKPPGMIIEGDQLHIRCIVQVTHLVQEFTEIIIQKDKAIVATSKQSSEAVYSVMAMVEYSGHYTCKVESNRISKASSIMVNITELFPKPKLEFSSSRLDQGELLDLSCSVSGTPVANFTIQKEETVLSQYQNFSKIAEESDSGEYSCTAGIGKVVKRSGLVPIQVCEMLSKPSIFHDAKSEIIKGHAIGISCQSENGTAPITYHLMKAKSDFQTLEVTSNDPATFTDKPTRDMEYQCRADNCHSHPAVFSEILRVRVIAPVDEVVISILSSNEVQSGSEMVLRCSVKEGTSPITFQFYKEKEDRPFHQAVVNDTQAFWHNKQASKKQEGQYYCTASNRASSMRTSPRSSTLAVRVFL
modifications: Soluble CD31 (sCD31)
In the case of B1, the “EC50 of prevention of MPP+-induced DA cell loss” value ([1]; 3 μM MPP+ between 5 and 7 DIV, sCD31 during the intoxication period) is reported as 0.036 µg/mL, the “neuroprotective effect against MPP+-induced DA cell death” value ([1]; 3 μM MPP+ between 5 and 7 DIV, test substance up to 1 μg/mL) is reported as “prevented” and the “neuroprotective effect in the presence of antagonistic anti-CD38 antibody clone AT13/5” value ([1]; 3 μM MPP+, test substance 1 μg/mL, AT13/5 1 μg/mL) is reported as “antagonized”. The “neuroprotective effect in the presence of anti-CD31 antibody clone Moon-1” value ([1]; 3 μM MPP+, test substance 1 μg/mL, Moon-1 1 μg/mL) was “antagonized”, the “neuroprotective effect in the presence of antagonistic anti-CD38 antibody clone OKT10” value ([1]; 3 μM MPP+, test substance 1 μg/mL, OKT10 1 μg/mL) was “antagonized” and the “neuroprotective effect in the presence of endosidin2” value ([1]; 3 μM MPP+, test substance 1 μg/mL, endosidin2 40 μM) was “antagonized”. The “neuroprotective effect in the presence of the tyrosine kinase inhibitor genistein” value ([1]; 3 μM MPP+, test substance 1 μg/mL, genistein 10 nM) was “antagonized”, the “neuroprotective effect in the presence of the lysosomal exocytosis inhibitor vacuolin-1” value ([1]; 3 μM MPP+, test substance 1 μg/mL, vacuolin-1 10 μM) was “antagonized” and the “release of IL-10 in vivo (conclusion in words)” value (IL-10) was “strong release”.
